{"source": "patent US20100119506A1", "about": "“Effectors of PAR-2 Activation and Their Use in the Modulation of Inflammation” (BOEHRINGER INGELHEIM INTERNATIONAL GMBH, priority 2008, published 2010)", "molecules": {"B1": {"name": "Ab3777: parental anti-PAR-2 antibody from phage display; light chain SEQ ID NO:6, heavy chain SEQ ID NO:7 (antibody, V domains shown)", "VH": "QVQLVESGGGLVQPGGSLRLSCAASGFTFSSYAMNWVRQAPGKGLEWVSTISYSSSATSYADSVKGRFTISRDNSKNTLYLQMNSLRAEDTAVYYCARIQNDPMDVWGQGTLVTVSS", "VL": "DIELTQPPSVSVAPGQTARISCSGDNLGKKYVQWYQQKPGQAPVLVIYDDSNRPSGIPERFSGSNSGNTATLTISGTQAEDEADYYCSSWDVGSDGWVFGGGTKLTVLGQ", "modifications": "Antibody identified via phage display"}}, "key": {"PAR-2 [1]": {"molecular_target": "PAR-2", "assay": "Affinity for PAR-2 in phage display selection and affinity maturation", "type": "binding", "details": "initial selection, Fab", "from_the_text": "Antibody phage display techniques were employed to pan for antibodies (Fab fragments) capable of immunospecifically binding to residues spanning the protease cleavage site at the N-terminal of PAR-2. […] The sequences of the heavy (IgG4) and light (lambda) chain variable regions of the antibody Ab3777 are presented below (CDR residues are underlined): […]"}, "PAR-2 [2]": {"molecular_target": "T1, PAR-2 (Homo sapiens, UniProt P55085)", "T1 sequence (P55085 26-397)": "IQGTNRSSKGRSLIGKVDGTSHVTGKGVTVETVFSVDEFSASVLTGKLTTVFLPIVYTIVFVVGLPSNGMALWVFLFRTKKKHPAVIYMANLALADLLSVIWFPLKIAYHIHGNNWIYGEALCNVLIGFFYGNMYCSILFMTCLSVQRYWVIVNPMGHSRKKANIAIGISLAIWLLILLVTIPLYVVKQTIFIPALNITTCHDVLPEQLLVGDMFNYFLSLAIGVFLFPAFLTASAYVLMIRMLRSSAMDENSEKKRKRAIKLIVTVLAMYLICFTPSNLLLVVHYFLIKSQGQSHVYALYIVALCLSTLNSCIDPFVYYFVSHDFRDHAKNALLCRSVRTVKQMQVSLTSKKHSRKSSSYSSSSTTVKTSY", "assay": "Trypsin induced calcium response (FLIPR) in A549 cells", "type": "cell-based", "parameters": "expressing endogenous PAR-2; endogenous in cells; host or cells: A549", "details": "A549 cells", "procedure": "Using A549 cells, PAR-2 activation was measured by detecting the calcium response following trypsin stimulation. Fabs were tested in this assay for their ability to inhibit this response. […] Antibody concentrations are expressed as μg/ml (FIG. 6).\nThrombin activates PAR-1, whereas PAR-2 is activated by trypsin in A549 cells."}, "FLAG-tagged PAR-2": {"molecular_target": "T2, FLAG-tagged PAR-2 (Homo sapiens, UniProt P55085)", "T2 construct": "expressed in transfected cells; host or cells: HEK", "T2 sequence (P55085 26-397)": "T1 sequence (P55085 26-397)", "assay": "FLAG-PAR-2 cell-based cleavage assay (flow cytometry)", "details": "dHLX bivalent Fab; trypsin 30 nM, 5 minutes", "procedure": "To assess the ability of antibody Ab3777 to block trypsin mediated cleavage of the PAR-2 N-terminus, antibodies were tested in a FRET assay that measures an increase in fluorescence upon cleavage of a labeled peptide representing the N-terminus of PAR-2. […] To assess the ability of antibodies to block trypsin mediated cleavage of the PAR-2 N-terminus on cells, HEK transfectants over-expressing FLAG-tagged PAR-2 were treated with trypsin in the presence or absence of Ab3777 dHLX bivalent Fabs. […]\nDetection of the FLAG-tag on the cell surface correlates with inhibitory activity."}, "[3]": {"test_system": "labeled peptide representing the N-terminus of PAR-2", "assay": "FRET-based PAR-2 peptide cleavage assay (trypsin)", "type": "biochemical", "procedure": "To assess the ability of antibody Ab3777 to block trypsin mediated cleavage of the PAR-2 N-terminus, antibodies were tested in a FRET assay that measures an increase in fluorescence upon cleavage of a labeled peptide representing the N-terminus of PAR-2. […] To assess the ability of antibodies to block trypsin mediated cleavage of the PAR-2 N-terminus on cells, HEK transfectants over-expressing FLAG-tagged PAR-2 were treated with trypsin in the presence or absence of Ab3777 dHLX bivalent Fabs. Activation of PAR-2 results in cleavage/internalization of the receptor resulting in a loss of the FLAG epitope as detected by an antibody in a flow cytometry assay (FIG. 3).\nAffinity matured and cross-cloned antibodies in the IgG4_Pro format were evaluated for cell binding, inhibition of trypsin induced calcium responses in a FLIPR assay, inhibition of PAR-2 peptide cleavage in a FRET assay and inhibition of PAR-2 cleavage in a cell based assay system. All candidates show excellent apparent affinity (EC50) for PAR-2 transfected cells and maximal efficacy and potency in all short term cellular assays (Table 4)."}}, "note": "“Also recorded” adds a separate entry of the source."}
{"molecule": "B1", "values": [{"measurement": "Kd", "setting": "PAR-2 [1]", "value": 65, "unit": "nM"}, {"measurement": "activity in trypsin induced calcium response assay (in words)", "setting": "PAR-2 [2]; IgG1 format", "value": "active but weaker"}, {"measurement": "inhibition in trypsin induced calcium response assay (in words)", "setting": "PAR-2 [2]; bivalent Fab format", "value": "partial dose-dependent inhibition"}, {"measurement": "activity in trypsin induced calcium response assay (in words)", "setting": "PAR-2 [2]; monovalent format", "value": "not active"}, {"measurement": "inhibition in cellular cleavage assay (in words)", "setting": "FLAG-tagged PAR-2", "value": "partial inhibition"}, {"measurement": "inhibition of trypsin cleavage of PAR-2 peptide (in words)", "setting": "[3]", "value": "partial inhibition; also recorded: partially block this cleavage in a transient manner"}]}
